Reference: the nanobody polyreactivity screen of Harvey et al. (2022)

Experiment: yeast display, Sf9 membrane polyspecificity reagent, FACS + sequencing; frameworks hold sequencing errors
How it was run: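 Using colony PCR, genes from sorted yeast display clones were amplified, then sequenced on MiSeq at 2 × 250 and filtered by CDR length. The clones had been stained with 10% biotinylated, detergent-solubilized Sf9 membrane reagent for 1 hour at 4 °C and sorted by FACS into low and high (top ~1%) gates on anti-HA and streptavidin fluorescence. Polyreactivity labels come from the gate of origin.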

Sequence | polyreactivity (PSR sort gate)
QVQLVESGGGLVQAGGRLRLSCAASGIIFASNAMGWYCQAPGKERELVAAISRSGGRTYYADSVKGRFTISRDNAKNTVYLQMNSLKPEDTAVYYCAILARSGTLPYYYWGQGTQVNVSS | high polyreactivity
QAELVESGGGLVQAGGSLRLSSAASGIIFDVYAMGWYRQAPGKERELVASIRWRGGSTYYADSVKGRFTISRDNAKNTVFLQMNSLKPEDTAVYYCAADLTRWYGRTYNYWGQGTQVTVSS | high polyreactivity
QVQRVESGGGLVQAGGSLRLTCAPSGFIFYYYAMGWYRQAPGKEMQLVAAIDSGGSTYADSVNGRFTISRDNAKNTVYLQMTSLKPEDTAVYYCAADYYLPWYPDYDYWGQGTQVTVSS | low polyreactivity
QVQLVESGGGLVQAGGSLRLSCAASGRIFRGNAMGWYRQAPGKEREMVAAISRRSGSTYYADSVKGRFTISRDNAKNTVYLQMNSLKPEDTAVYYCAATSSLGDFRYDYWGQVTQVTVSS | high polyreactivity
QVQLVESGGGLVQAGGSLRLSCAASGRIFVSNAMGWYRQAPGKERELVAGITWTSGSTYYADSVKGRFTISRDNAKNTVYLQMNSLKPEDTAVYYCAAEYCYGNAFDYWGQGTQVTVSS | low polyreactivity
QVQLVESGGGLVQAGGSLRLSCAASGFTFEGYAMGGYRQAPGKERELVAAINGSGGSTYYADSVKGRFTISRDYAKNTVYLQMNSLKPEDTAVYYCAKSGYGNRGFDYWGQGTQVTVSS | low polyreactivity
QVQLVESCGGLVQAGGSLRLSCAASGFIFLPYVMGWYRQAPGKERELVAAISGGGGITYYADSVKGRFTISRDNAKNTVYLQMNSLKPEDTAVYYCAAERPVAPYDYWGQGTQVTVSS | low polyreactivity
QVQLVESGGGLVQEGGSLRLSCAASGFTFDDYAMGWYRQAPGKERELVATITNSDSSTYYADSVKGRFTISRDNEKNTFYLQMNSLQPVDTAVYYCAADGRYAYGYNHWGHGTQVTVSS | low polyreactivity
QVQLVESGGRLVQAGGSLRLSCAASGSTFTVIGMGWYRQAPGKERELVASITWSGGSTYYADSVKGRFTISRDNAKNTVYLQMTSLIPEDTAVYYCAADEKLYITGYDYWGQGTQVTVSS | low polyreactivity
QVQLVESGGGLVQAGGSLRLSCAASGPTFAKNTMGWYRQAPGKERELVAAISWRGGRTYYADSVKGRFTISRDNAKNTVYLQMNSLKPEDTAVYYCAAASTIHRHGMDYWGQGTQVTVSS | high polyreactivity
QVQLVESGGGLVQAGGSLRLSCAASGSIFGGYAMGWYRQAPGKERELVARITDRGGSTDYADSVKGRFTISRDNAKNTVYLQMNSLTPEDTAVYYCAKRGDRYEKRPRDYWGQGTQVTVSS | low polyreactivity
QVQLVESGGGLVQAGGRLRLSCAASGGIFGSYAMGWYRQAPGKERELVADITQSGGRTRYADSVKGRFTISRDNAKNTVYLQMNSLKPEDTAVYYCNAQDVDSGDDYDYWGQGTQVTVSS | low polyreactivity
QVQLVESGGGLVQAGGSLRLSCAASGRIFDIYAMGWYRQAPGKERELVAAIDESGGSTYYADSVKGRFTISRDNAKNTVYLQMNSLKPEDTAVYYCATVDTWTISYGWYCFTYEYWGQCTQVTVSS | low polyreactivity
QVQLVESGGGLVQAGGSLRLSCAASGTFWLYTMGWYRQAPGKERELVAAISLTAGNTYYADSVKGRFTISRDNAKYTVYLQMNSLKPEDTAVYYCAADHYYYTRYEYWGQGTQVTVSS | low polyreactivity
QVQLVESGRGLVQAGGSLRVSCAASGNTYLYYGMGWYRHAPGKERELVAAITQSGGTTYYADSVKGRFTISRDNAKNTVYFQMNTLIPEDTAVYYFAATRYYYYWYVYDDRGDYWGQGTQVSVSS | low polyreactivity
QDQLVESGGGLVQAGGTLSLSSAASVIIFYDNAMGWSRQAPGKEREYVAAISRSGTTTYYADSVKGRFTISRDNAKNTVYLQMNSLKPEDTAVYYCAARWVYYHAIFEYWGQGTQVTVSS | high polyreactivity
QVQLVESGGGLVQAGGSLRLSCAASGSTFYIYAMGWSRQAPGKEREFVAAIDFSGSSTYADSVKGRFTISLDNAKNTVYLQMNSLKPEDTAVYYCAAYQIYQYYGPYDYWGQGTQVTVSS | low polyreactivity
QFQLEESGGGLVQAGGSLRLSCAASGNIFFTNAMGRYRQAPGNERELVATITFRGTSTYYADSVKGRFTISRDNAKNTVYLQMNCLKPEDTAVYYCTARYSVFHRARVNLLGWGLYYWGQGTQVTVSS | low polyreactivity
QVQLVESGGGLVQAGGSLRLSCAASGRIFGIYAMGWYRHAPGKERELVATITWSGGSTYYADSVKGRFTISRDNAKNTVYLQMNSLKPEDTAVYYCAAYYRQFFGWYDYWGQGTQVTVSS | high polyreactivity
QVQLVESGGGLVQAGGSLRLSCAASGSTFDVYAMGWYRQAPGKERELVATITGSGGSTYYADSVKGRFTISRDNAKNTVYLQMNSLKPEDTAVYYCAARYPVSGGYDYWGQGTQVTVSS | low polyreactivity
QVQLVESGGGLVEPGGSLRLSFASSGRTYQFYVMGWSRQAPGKERELVASIRSGGSTNYADSVKGRFTISRDNAKNTVYLLMNSLKPEDTALYYCAARVASPYYRYVYWGKGTQVTVSS | low polyreactivity
QVQLVESGGGLVQAGGRLRLSCAASGIIFRVYTMGWYRPEPGKERELVATISLGVARTYYADSVKGRFTISRDNAKYTVYLQMNSLKPEDTAVYYCAKRRGGQGNYWGQGTQVTVSS | high polyreactivity

Sequence | polyreactivity (PSR sort gate)
QVQLVESGGGLVQAGGCLRLSCAASGSTFRGNAMGWYRQAPGKERELVAAITYSGGSTDYADSVKGRFTISRDNAKNTVYLQMNSLKPDDTAVYYCAARWYYYPLLYDYWGQGTQVTVSS | low polyreactivity
QVQLVESGGGLVQAGGSLRLSCAASGSIFIPYAMGWYRQAPGKERELVAAISGSGTSTNYADSVKGRFTISRDNAKNTVYLQMNSLKPEDTAVYYCAARLPYGYLRSKFYYWGQGTQVTVSS | high polyreactivity
QVQLVESGGGLVQAGGSLRLSCAPSGTIFYSYAMGWYRQAPGKERELVAAISQRGGSTYYADSVKGRFTISRDNAKNTVYLQMNSLKPEDTAVYYCNAVYRRAQFLYGYDYWGQGTQVTVSS | high polyreactivity
QVQLVESGGGLVQAGGSLRLSCAASGSIFITYAMGWYRQAPGKERELVAAIRDSGDRTYYADSVKGRFTISRDNAKNTVYLQMNSLKPEDTAVYYCAKRAWGSPYGYWGQGTQVTVSS | low polyreactivity
QVQLVESGGGLVQAGGSLRLSCAASGSIFAKYGMGWYRQAPGKEREFVAAISKSGGITYYADSVKGRFTISRDNAKNTVYLQMNSLKPEDTAVYYCADSYVSYRKRDDYWGQGTQVTVSS | high polyreactivity
QVQLQESGGLVQAGGLRLSCAASGSVSYQEAMGWYRQSPGKERELVATISFGANTNYADSVKGRFTISRDNAKNTVYLQMNSLKPEDTAVYYCAAESLFDDYYGYWGQGTQVTVSS | low polyreactivity
QVQLVESGGGLVQAGGSLRLSCAASGYTFDWYTMGWYRQAPGKERELVAAISASGVRTYYADSVKGRFTISRDNAKNTVYLQMNSLKPEDTAVYYCNRVYSTSRITQYEFDYWGQGTQVTVSS | low polyreactivity
QVQLVESGGGLVQAGGSLRLSCAASGSTFRYNAMGWYRQAPGKERELVAAITGSGDRTFYADSVKGRFTISRDNAKNTVYLQMNSLKPEDTAVYYCAARSRYPFSYGYYYWGQGTQVTVSS | high polyreactivity
QVQLVDSGGAVVQAGGSLRLSCAASGYTFYRYAMGWYRQAPGKERELVAAMSRRGTRTYYADSVKGRFTISRDNAKNTVYLQMNSLKPEDTAVYFCNARRVRDVWWQLKRGDYWGQATQVTVSS | high polyreactivity
QVQLVETGGGLVHAGGSLRLSCAASGRIFHINAMGWYRQAPGKERELVAAISSGGRTNYADSVKGRFTISRDNAKNTVYLQMNSLKPEDTAVYYCARQYTYGPNRWYGYWGQGTQVTVSS | high polyreactivity
QVQLVESGGGLVQAGGSLRLSCAASGNTFFVYAMGWYRQAPGKERELVADINWSTGSTYYADFVKGRFTLSRDNAKNTVYLQMNSLKPEDTAVYYCAAEAYYYVIFHGSWYTDDYWGQGTQVTVSS | low polyreactivity
QVQLVQSGGGLVQAGGSLRLSCAASGSTFSTYAMGWYRQAPGKERELVAAISRYGGLTNYADSVKGRFTISRDNAKNTVYLQMNSLKPEDTAVYYCAARRYDTGNGYDYWGQGTQVTVSS | high polyreactivity
QVQLVESGGGLVQAGGSLRLSCAASGRIFRQYAMGWYRQAPGKEREFVAGISTTGGSTYYADSVKGRFTISRDNAKNTVYLQMNSLKPEDTAVYYCAVRINWSRWYHYYTYNYWGQGTQVTVSS | high polyreactivity
QVQLVESGGGLVQAGGSLRLSCAASGSTFSLNAMGWYRQAPGKERELVAAISNVGDTYYADSVKGRFTISRDNAKNTVYLQMNSLKPEDTAVYYCAADGASYYYEYDYWGQGTQVTVSS | low polyreactivity
QVQLVESGGVLVQAVGSLRLSCAASGSIFRLYALGWYREARGKEREFVATITWSGGSTSYADSVKGRFTISRDNAKNTVYLQMNSLKPEDTAVYYCAAKRRYWLYDWGQGTQVTVSS | high polyreactivity
QDLLVESGGGLVQAGGSLRLSCAASGRTFWDYTMGWYRQAPGKDRELVASITRTCRTNYADSVKGRFTISRDNAKNTVYLQMNSLKTEDTAVYYCAAEVGYQGWYPSGYKFDYWGQGTQVTVSS | high polyreactivity
QVQLVASGGGLDQAGGSLRLSCAASGFPFQENAMGWYRQAPGKERELVAAISYGGGSPSYADSVKGRFTISRDNAKNTVYVQMNSLKPEDNAVYYCAADGGSAYAWYFAELYGYWGQGTQVTVSS | low polyreactivity
QVQLVESGGGLVQAGGRLRLSCAASGRICIIYALGWYRQAPGKEREFVAAITSSGGSTYYADSVKGRFTISRDNAKNTVYLQMNSLTPEDTAVYYCAARVTKLRTSSLRGYWGQGTQVTVSS | high polyreactivity
QVQLVESGGGLVQAGGSLRLSCAASGSTFASNAMGWYRQAPGKERELVATINGDGSTNYADSVKGRFTISRDNAKNTVYLQMNSLKPEDTAVYYCNARYDYYGFWYQPYTLEVDYWGQGTQVTVSS | low polyreactivity
HVQLVESGGGLVQAGGSLRLSCAASGSTFSYYAMGWYRQAPGKERELVAAITSGGRTKYADSVKGRFTISRDNAKNTVYLQMNSLKPEDTAVYYCAKRIEKFSGSLAGRWYDYWGQGTQVTVSS | high polyreactivity
QVQLVESGGGIVQAGGSLRLSCADSGFISVTYAMGWYRPAPGKERELDAAITYSGGSTYYADSVKGRYTISRDNAKNTVYLQMNSLKPEDTAVYYCAKKRRVVVLSVQGDYWGQGTQVTVSS | low polyreactivity
